From the supplement of paper PMC9112550, “Optimization of the antimicrobial peptide Bac7 by deep mutational scanning” (BMC Biology, 2022)

Test system: Escherichia coli TOP10
Test: shrunken log2 fold change of peptide-encoding DNA abundance (4.5 h post-induction vs induction); higher = less antimicrobial activity (less host growth inhibition)
Details: time post-induction: 4.5 h; library: site-saturation at positions 5, 18, 19, 20
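Note: peptides expressed intracellularly from a pBAD plasmid library in pooled LB shake-flask culture, induced with 0.3% L-arabinose, DNA abundance read by NGS, three biological replicates, DESeq2 with apeglm shrinkage.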

| Sequence | shrunken log2 fold change |
| --- | --- |
| RRIRPRPPRLPRPRPRPMQQPRP | -0.0524 |
| RRIRNRPPRLPRPRPRPQWYPRP | -0.209 |
| RRIRQRPPRLPRPRPRPQQHPRP | -0.362 |
| RRIRGRPPRLPRPRPRPIKHPRP | 0.171 |
| RRIRRRPPRLPRPRPRPFFQPRP | -0.111 |
| RRIRMRPPRLPRPRPRPSPPPRP | 0.74 |
| RRIRFRPPRLPRPRPRPVIWPRP | -0.0895 |
| RRIRARPPRLPRPRPRPPCWPRP | 0.967 |
| RRIRPRPPRLPRPRPRPTDTPRP | -0.00249 |
| RRIRDRPPRLPRPRPRPWAKPRP | -0.0135 |
| RRIRGRPPRLPRPRPRPICLPRP | 0.277 |
| RRIRYRPPRLPRPRPRPWLMPRP | -0.0285 |
| RRIRFRPPRLPRPRPRPQVEPRP | -0.0419 |
| RRIRWRPPRLPRPRPRPEMYPRP | 0.144 |
| RRIRKRPPRLPRPRPRPDIIPRP | 0.194 |
| RRIRLRPPRLPRPRPRPWKKPRP | -0.279 |
| RRIRYRPPRLPRPRPRPKRHPRP | -0.159 |
| RRIRTRPPRLPRPRPRPIRAPRP | -0.0672 |
| RRIRRRPPRLPRPRPRPAWFPRP | 0.22 |
| RRIRDRPPRLPRPRPRPQRAPRP | 0.0568 |
| RRIRPRPPRLPRPRPRPDSYPRP | -0.422 |
| RRIRQRPPRLPRPRPRPWTDPRP | 0.0166 |

| Sequence | shrunken log2 fold change |
| --- | --- |
| RRIRMRPPRLPRPRPRPKIGPRP | -0.0597 |
| RRIRHRPPRLPRPRPRPWLFPRP | -0.0716 |
| RRIRYRPPRLPRPRPRPLGKPRP | -0.192 |
| RRIRERPPRLPRPRPRPMTSPRP | -0.212 |
| RRIRYRPPRLPRPRPRPDKCPRP | -0.107 |
| RRIRARPPRLPRPRPRPHQQPRP | 0.33 |
| RRIRNRPPRLPRPRPRPYPWPRP | -0.0963 |
| RRIRYRPPRLPRPRPRPMFAPRP | -0.117 |
| RRIRLRPPRLPRPRPRPKFMPRP | 0.149 |
| RRIRMRPPRLPRPRPRPYMVPRP | -0.0313 |
| RRIRVRPPRLPRPRPRPSYKPRP | -0.581 |
| RRIRWRPPRLPRPRPRPKDHPRP | 0.182 |
| RRIRERPPRLPRPRPRPMNGPRP | -0.0134 |
| RRIRGRPPRLPRPRPRPITIPRP | 0.0958 |
| RRIRYRPPRLPRPRPRPCYQPRP | -0.285 |
| RRIRVRPPRLPRPRPRPVFYPRP | -0.178 |
| RRIRRRPPRLPRPRPRPHKYPRP | -0.192 |
| RRIRKRPPRLPRPRPRPEFQPRP | 0.0241 |
| RRIRSRPPRLPRPRPRPQTWPRP | -0.164 |
| RRIRGRPPRLPRPRPRPGWLPRP | 1.17 |
| RRIRSRPPRLPRPRPRPDMYPRP | 0.00612 |
| RRIRIRPPRLPRPRPRPTYIPRP | -1.29 |

| Sequence | shrunken log2 fold change |
| --- | --- |
| RRIRYRPPRLPRPRPRPYMRPRP | -1.01 |
| RRIRHRPPRLPRPRPRPWNNPRP | -0.453 |
| RRIRMRPPRLPRPRPRPTKPPRP | 0.0618 |
| RRIRMRPPRLPRPRPRPYNRPRP | -0.336 |
| RRIRQRPPRLPRPRPRPGSRPRP | 0.166 |
| RRIRTRPPRLPRPRPRPIWLPRP | -0.201 |
| RRIRFRPPRLPRPRPRPHYGPRP | 0.0398 |
| RRIRERPPRLPRPRPRPIIHPRP | -0.413 |
| RRIRERPPRLPRPRPRPDDKPRP | -0.433 |
| RRIRIRPPRLPRPRPRPDHQPRP | -0.0128 |
| RRIRTRPPRLPRPRPRPKCLPRP | -0.0528 |
| RRIRNRPPRLPRPRPRPCKKPRP | -0.0371 |
| RRIRHRPPRLPRPRPRPDHGPRP | -0.115 |
| RRIRERPPRLPRPRPRPYYLPRP | -0.827 |
| RRIRERPPRLPRPRPRPICWPRP | 0.0372 |
| RRIRQRPPRLPRPRPRPSFLPRP | -0.355 |
| RRIRARPPRLPRPRPRPWTEPRP | -0.181 |
| RRIRERPPRLPRPRPRPIEAPRP | -0.0164 |
| RRIRNRPPRLPRPRPRPHISPRP | -0.0617 |
| RRIRCRPPRLPRPRPRPVQPPRP | 0.455 |
| RRIRYRPPRLPRPRPRPQNMPRP | -1.33 |
| RRIRLRPPRLPRPRPRPIQAPRP | 0.0789 |

| Sequence | shrunken log2 fold change |
| --- | --- |
| RRIRERPPRLPRPRPRPITQPRP | 0.0291 |
| RRIRSRPPRLPRPRPRPAMTPRP | 0.459 |
| RRIRIRPPRLPRPRPRPCWHPRP | -0.428 |
| RRIRARPPRLPRPRPRPVATPRP | 0.982 |
| RRIRHRPPRLPRPRPRPVLVPRP | -0.0156 |
| RRIRQRPPRLPRPRPRPSKAPRP | 0.356 |
| RRIRIRPPRLPRPRPRPNHFPRP | -0.694 |
| RRIRIRPPRLPRPRPRPQNCPRP | -0.0145 |
| RRIRFRPPRLPRPRPRPHEPPRP | -0.164 |
| RRIRERPPRLPRPRPRPWPWPRP | -0.233 |
| RRIRVRPPRLPRPRPRPNIHPRP | -0.556 |
| RRIRGRPPRLPRPRPRPIDIPRP | -0.0347 |
| RRIRKRPPRLPRPRPRPLYHPRP | -0.364 |
| RRIRGRPPRLPRPRPRPHVPPRP | 0.103 |
| RRIRARPPRLPRPRPRPFGNPRP | -0.148 |
| RRIRQRPPRLPRPRPRPWFRPRP | -0.145 |
| RRIRHRPPRLPRPRPRPSHSPRP | -0.577 |
| RRIRSRPPRLPRPRPRPVGYPRP | 0.093 |
| RRIRWRPPRLPRPRPRPSKCPRP | -0.00209 |
| RRIRGRPPRLPRPRPRPPEAPRP | 1.33 |
| RRIRDRPPRLPRPRPRPGRKPRP | 0.0333 |
| RRIRVRPPRLPRPRPRPEKHPRP | -0.0527 |

| Sequence | shrunken log2 fold change |
| --- | --- |
| RRIRYRPPRLPRPRPRPCDTPRP | -0.0977 |
| RRIRPRPPRLPRPRPRPKWHPRP | 0.173 |
| RRIRCRPPRLPRPRPRPTFGPRP | -0.213 |
| RRIRARPPRLPRPRPRPCQLPRP | -0.0907 |
| RRIRARPPRLPRPRPRPYMMPRP | -1.22 |
| RRIRMRPPRLPRPRPRPIFIPRP | 2.07 |
| RRIRGRPPRLPRPRPRPAAMPRP | 1.54 |
| RRIRRRPPRLPRPRPRPDISPRP | 0.0322 |
| RRIRQRPPRLPRPRPRPKELPRP | -0.534 |
| RRIRERPPRLPRPRPRPPYFPRP | -0.441 |
| RRIRNRPPRLPRPRPRPMVSPRP | -0.145 |
| RRIRTRPPRLPRPRPRPSPVPRP | 0.0854 |
| RRIRVRPPRLPRPRPRPTCQPRP | -0.035 |
| RRIRHRPPRLPRPRPRPTNDPRP | -0.311 |
| RRIRARPPRLPRPRPRPCEVPRP | 3.46 |
| RRIRVRPPRLPRPRPRPSYYPRP | -0.674 |
| RRIRLRPPRLPRPRPRPGANPRP | -0.146 |
| RRIRARPPRLPRPRPRPHHTPRP | -0.364 |
| RRIRHRPPRLPRPRPRPMYSPRP | -0.263 |
| RRIRKRPPRLPRPRPRPIPTPRP | 0.397 |
| RRIRRRPPRLPRPRPRPPRAPRP | 1.17 |
